Patent US20250320268A1 (SHATTUCK LABS, published 2025)
Where “and” joins values, the source holds several entries; their conditions need not be identical. Equal entries are not always repeated.

How the values were obtained:
[1] = biological target: recombinant hCD47-Fc (human) (UniProt Q08722); assay: SIRPα blocking ELISA: plate-bound hCD47, labelled competitor recombinant hSIRPα
[2] = biological target: recombinant human FcγR1A, histidine-tagged (human) (UniProt P12314); assay: SPR (ProteOn XPR36); His-tagged FcγR1A immobilized, binder as analyte
[3] = biological target: T1, recombinant mouse CD47 (mouse, UniProt Q61735 19-140, limits assumed); assay: dual ELISA: coat mCD47-Fc, detect mCD40-His, tertiary anti-his-HRP
T1 construct: also called mCD47-Fc
T1 sequence (looked up): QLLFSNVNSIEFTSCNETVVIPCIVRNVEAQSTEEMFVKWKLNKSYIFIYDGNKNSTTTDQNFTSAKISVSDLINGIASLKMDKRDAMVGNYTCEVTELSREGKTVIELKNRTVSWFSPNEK
Protocol: Plates were washed with TBS-T (Tris-buffered saline containing 0.1% Tween 20) and then detection antibody was added for 1 hour at room temperature in the dark. Detection antibodies included anti-hIgG-HRP, anti-mIgG-HRP, anti-hCD40L, anti-mCD40L, and then anti-Goat-HRP (all antibodies were obtained from Jackson ImmunoResearch Laboratories or R&D Systems). Plates were washed again and SureBlue TMB Microwell Peroxidase Substrate (KPL; purchased from VWR, catalog no. 95059-282) was added to each well and allowed to incubate at room temperature in the dark. To stop the reaction, 1N sulfuric acid was added to each well and absorbance at 450 nm was read immediately on a BioTek plate reader. Samples were run at a minimum in triplicate and at multiple dilutions.

[4] = biological target: T2, recombinant human CD40, histidine-tagged (human, UniProt P25942 21-193); assay: SPR (ProteOn XPR36); His-tagged CD40 immobilized, binder as analyte
T2 construct: Immobilized ligand in SPR and coating reagent in the single-sided ELISA; also called CD40 (AcroBiosystems); hCD40-His; not shown: histidine tag
T2 sequence (P25942 21-193 limits assumed): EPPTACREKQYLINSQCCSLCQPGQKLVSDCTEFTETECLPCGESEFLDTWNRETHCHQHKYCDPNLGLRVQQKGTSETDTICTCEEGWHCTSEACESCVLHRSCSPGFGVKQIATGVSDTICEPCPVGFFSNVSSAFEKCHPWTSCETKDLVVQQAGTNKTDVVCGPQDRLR

Chain of recombinant human FcγR1A, histidine-tagged (human) (P12314 16-288): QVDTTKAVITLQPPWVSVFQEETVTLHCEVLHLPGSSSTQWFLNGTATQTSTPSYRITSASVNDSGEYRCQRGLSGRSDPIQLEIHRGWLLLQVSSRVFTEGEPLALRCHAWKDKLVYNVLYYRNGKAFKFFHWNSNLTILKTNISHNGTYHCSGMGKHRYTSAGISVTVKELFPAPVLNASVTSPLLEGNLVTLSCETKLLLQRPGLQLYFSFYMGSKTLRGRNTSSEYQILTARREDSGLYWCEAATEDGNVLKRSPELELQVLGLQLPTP
Chain of recombinant hCD47-Fc (human) (Q08722 19-139 limits assumed): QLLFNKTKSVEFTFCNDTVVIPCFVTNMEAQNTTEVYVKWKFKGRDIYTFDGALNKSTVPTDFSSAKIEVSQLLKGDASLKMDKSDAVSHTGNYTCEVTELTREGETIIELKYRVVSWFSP

anti-human CD47 blocking antibody, clone CC2C6 (BioLegend)
IC50 (read off the curve) [1]: 10 nM

human IgG1 (positive control for Fcγ receptors and FcRn) (antibody)
Kd [2]: 8.42 nM
koff [2]: 0.000156 s⁻¹
kon [2]: 18400 M⁻¹ s⁻¹

B1: murine SIRPα-Fc-CD40L chimeric protein surrogate (Fc fusion)
chain: KELKVTQPEKSVSVAAGDSTVLNCTLTSLLPVGPIRWYRGVGPSRLLIYSFAGEYVPRIRNVSDTTKRNNMDFSIRISNVTPADAGIYYCVKFQKGSSEPDTEIQSGGGTEVYVLAKPSPPEVSGPADRGIPDQKVNFTCKSHGFSPRNITLKWFKDGQELHPLETTVNPSGKNVSYNISSTVRVVLNSMDVNSKVICEVAHITLDRSPLRGIANLSNFIRVSPTVKVTQQSPTSMNQVNLTCRAERFYPEDLQLIWLENGNVSRNDTPKNLTKNTDGTYNYTSLFLVNSSAHREDVVFTCQVKHDQQPAITRNHTVLGFAHSSDQGSMQTFPDNNATHNWNVPRDCGCKPCICTVPEVSSVFIFPPKPKDVLTITLTPKVTCVVVDISKDDPEVQFSWFVDDVEVHTAQTQPREEQFNSTFRSVSELPIMHQDWLNGKEFKCRVNSAAFPAPIEKTISKTKGRPKAPQVYTIPPPKEQMAKDKVSLTCMITDFFPEDITVEWQWNGQPAENYKNTQPIMNTNGSYFVYSKLNVQKSNWEAGNTFTCSVLHEGLHNHHTEKSLSHSPGKHRRLDKVEEEVNLHEDFVFIKKLKRCNKGEGSLSLLNCEEMRRQFEDLVKDITLNKEEKKENSFEMQRGDEDPQIAAHVVSEANSNAASVLQWAKKGYYTMKSNLVMLENGKQLTVKREGLYYVYTQVTFCSNREPSSQRPFIVGLWLKPSSGSERILLKAANTHSSSQLCEQQSVHLGGVFELQAGASVFVNVTEASQVIHRVGFSSFGLLKL
notes: also called mSIRPα-Fc-CD40L; mouse SIRPα-Fc-CD40L
EC50 [3]: 7.37 nM and 8.73 nM

B2: recombinant hCD40L-Fc (positive control analyte) (Fc fusion, human, UniProt P29965 116-261, looked up)
chain: GDQNPQIAAHVISEASSKTTSVLQWAEKGYYTMSNNLVTLENGKQLTVKRQGLYYIYAQVTFCSNREASSQAPFIASLCLKSPGRFERILLRAANTHSSAKPCGQQSIHLGGVFELQPGASVFVNVTDPSQVSHGTGFTSFGLLKL
notes: also called hCD40L-Fc (AcroBiosystems); not shown: Fc part of a bought fusion
Kd [4]: 1.15 nM
koff [4]: 0.000351 s⁻¹
kon [4]: 304000 M⁻¹ s⁻¹
